Measurements: the supplement of paper PMC12042874
± gives the uncertainty stated by the source.

assay: amyloid nucleation score (Sup35N fusion, yeast selection) (log enrichment); library NNK2; higher = more nucleation; inactive = no reads after selection
Summary of the method: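 Nucleation score: DiMSum log enrichment of output over input reads, centred on the mode score of non-aggregating sequences. Only sequences with at least 100 input reads were kept. Reads came from Illumina sequencing of plasmid inserts before and after 7 days of growth at 30°C without adenine and uracil, in psi-negative yeast expressing Sup35N fused to peptides of 20 random codons after 24 hours of induction with 100 μM copper sulfate.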

Row | Substance | amyloid nucleation score
1 | GFVPGIMEF | 0.808 ± 0.52
2 | GFYGLTVSSTEYKWSMIQIR | 1.88 ± 0.077
3 | GFYIPRRAFS | -1.13 ± 0.25
4 | GGISKIFVWEVSIVHYSNIS | inactive
5 | GGLCYEQNFYRYKKRRVLEL | 3.47 ± 0.12
6 | GGNLGRPEKALSRRCCVDYL | inactive
7 | GGSKTRLFL | -0.263 ± 1.1
8 | GGTLHWLAMDTNMVNMACIG | inactive
9 | GGTVEARSKGILSLSGW | inactive
10 | GHAHLCSMYVVSIRLHLSMV | 5.59 ± 0.081
11 | GHCFISEFLGRRVA | 2.36 ± 0.08
12 | GHGFFLTTMSSGNNTDRNSG | -1.22 ± 1.1
13 | GHNTYGYQRMRGCDV | 1.3 ± 0.38
14 | GHTPCPHNVVRTHVLSWHGL | 7.021 ± 0.042
15 | GHVDCWYGRVTALGQAKYE | 0.344 ± 0.26
16 | GHVQSWGCVVLHEFSSISPE | 5.488 ± 0.05
17 | GICKALARYYFSIYDWQVTE | 0.049 ± 1.1
18 | GICTWNFV | inactive
19 | GIGSQMWFT | 3.41 ± 0.053
20 | GIMGDGGGHALWTEEELKVR | 1.01 ± 0.23
21 | GINVCFKHTMV | 3.28 ± 0.062
22 | GIPCGGMFCRIGS | 0.524 ± 0.81
23 | GIRAVVL | 0.374 ± 0.18
24 | GIRLGSNDQSVYSRPNV | 1.46 ± 0.35
25 | GKCMV | 4.02 ± 0.095
26 | GKDGKLTSMAHSYHDYVMRR | 0.129 ± 0.26

Row | Substance | amyloid nucleation score
27 | GKEIRNNITMCGYLMQNICD | 2.85 ± 0.17
28 | GKPTFFMG | 0.6 ± 0.74
29 | GKVRRIIWLSCKNG | 1.05 ± 0.54
30 | GLESFGDYSVKIPLGDLFGP | -0.025 ± 0.3
31 | GLGYLMINYMRISWWAMYCA | 0.235 ± 0.61
32 | GLISIAVSRRVYLFCLVAPV | -0.541 ± 0.79
33 | GLKNRVWL | 1.05 ± 0.26
34 | GLLGKTASTYAVRVWGIGVG | 1.03 ± 0.2
35 | GLLGWMGAYGANPCYPTTLF | 0.515 ± 0.8
36 | GLMTYFSSVESGEHTDRNLS | -0.732 ± 0.33
37 | GLNISPRMYCF | 0.002 ± 0.28
38 | GLPYVSMINLHASYTERMVW | -0.687 ± 0.64
39 | GLRLFKMKDFC | 2.14 ± 0.21
40 | GLRWNKFYKCTEVCMCRGSS | 2.58 ± 0.15
41 | GLSAKNH | 0.279 ± 0.39
42 | GLSAMDDRMVPRIIYWIRLW | -0.217 ± 0.36
43 | GLWLGWNLYVNKFV | 0.385 ± 0.33
44 | GLWVV | -1.02 ± 1.1
45 | GLYRGTLVYKTYVLGNNKPL | -1.33 ± 1.1
46 | GMCLTGSTSVRTNNSPHVSR | 0.803 ± 0.32
47 | GMGIHFKASGRGPLIVGERD | 0.75 ± 0.44
48 | GMIRLLGLFIKKRWRSNTCL | -0.238 ± 0.5
49 | GMIVLRCSRSCWFVQTKADG | 1.27 ± 0.48
50 | GMLMIVGARSRDVPYYGRCD | 0.004 ± 1.1
51 | GMNFHRGLMLNGVCIFSLLW | 0.491 ± 0.38
52 | GMNRL | -0.869 ± 0.55

Row | Substance | amyloid nucleation score
53 | GMTVNYRRMVQNQRMFGPGI | -0.42 ± 0.37
54 | GMVNIYDLCYMLLY | -1.21 ± 0.31
55 | GNHSAVAPS | -0.677 ± 0.38
56 | GNKCLSWVES | -0.12 ± 0.23
57 | GNLSNSQTIWFRSNTAISLN | 1.98 ± 0.14
58 | GNNFIF | inactive
59 | GNNRAY | -0.117 ± 0.74
60 | GNPTESG | 0.148 ± 0.29
61 | GNRLWFGTIVRHLIYEVYVR | 0.665 ± 0.36
62 | GNRVYGDYCFYTTMGWASW | -0.379 ± 0.55
63 | GNYFPYFQVWSISRFLMSIS | inactive
64 | GNYVSTFFKCRILYRMNLMF | -0.121 ± 1.1
65 | GPCGVVVNFHRSCFCRFEFL | 7.61 ± 0.082
66 | GPCMMEGLIYREMSAGYTTV | 0.416 ± 0.49
67 | GPLFHTTRLRDNHM | 3.11 ± 0.11
68 | GPTNVIRTISRDTTIV | -0.646 ± 0.39
69 | GPTRSYRLAASGAGEGCKTW | 2.09 ± 0.1
70 | GQTIL | inactive
71 | GQYLVSKFGIEHTA | 0.307 ± 0.17
72 | GRAYHESLSGDFVLFSSRRC | -0.815 ± 0.63
73 | GRCTRERW | 0.123 ± 0.32
74 | GRESKVWIPFTGALF | -1.04 ± 1.1
75 | GRFDSRAFTDDMTKIPMYYL | 0.045 ± 0.36
76 | GRLYHGVVTCSGRNGINRGS | 2.92 ± 0.19
77 | GRNVMTKAPYCTCWANVLHS | 6.67 ± 0.075
78 | GRSEVRFMTMLMLCKKCACL | 5.547 ± 0.034

Row | Substance | amyloid nucleation score
79 | GRSGVLLQRGGFVKNSRCEK | 0.026 ± 1.1
80 | GRYNVDFKSIMRYIECGKTA | -0.27 ± 1.1
81 | GSAGNYRRY | 0.167 ± 0.56
82 | GSARCNTSFCCQQVYFYGCG | 8.486 ± 0.064
83 | GSCVIM | 1.36 ± 0.67
84 | GSFENSTRTYVSIIRR | 4.73 ± 0.045
85 | GSFLFYCILPIYFLGAWMRV | -1.4 ± 0.78
86 | GSLTDLFGWDESCFRCTALC | 3.79 ± 0.092
87 | GSMVLPIICNKIAYRSCSTI | -0.828 ± 0.56
88 | GSPIESGVFNANLWPYDAYG | -0.216 ± 0.41
89 | GSQGFPRRFSPSMPM | 0.886 ± 0.8
90 | GSQVLCGLRLPARGFWSYIM | 0.254 ± 0.3
91 | GSRDDSTVLVRKSSCRVEGS | 0.665 ± 0.37
92 | GSRGMVFQMFT | 0.94 ± 0.48
93 | GSRVALLNMGGK | -0.512 ± 0.79
94 | GSRYLIGVEYE | 0.319 ± 0.56
95 | GSSAYITLLHYEILNLRLLC | 4.12 ± 0.079
96 | GSSVEMQLCELTSGGFDLSL | 0.228 ± 0.32
97 | GSWLIEMCEVVSNSMTSMGP | 1.29 ± 0.3
98 | GSYCQWIYF | 1.99 ± 0.22
99 | GSYMS | 3.54 ± 0.065
100 | GSYYCIDVGASRRPVWILSA | 0.855 ± 0.48
101 | GTGIHLLLLVGSGDSSREMM | -1.08 ± 0.36
102 | GTGINLSFLYFAAGVLCSSS | -1.52 ± 1.1
103 | GTGMTYAIWLSGIGRMRFYY | -0.816 ± 0.33
104 | GTLPYFKN | -0.641 ± 0.74

Row | Substance | amyloid nucleation score
105 | GTRGVVLISMSWRVDLHWKP | inactive
106 | GTRSGSSDV | 0.31 ± 0.5
107 | GTRYDT | 0.468 ± 0.32
108 | GTSMCRELNVHNAWRGIHMG | 0.615 ± 0.29
109 | GTVNKSMVTSLTVPLIVC | 0.442 ± 0.28
110 | GTVTLV | 3.99 ± 0.11
111 | GTYFNLYAGVLSVRQWPPHI | 4.42 ± 0.061
112 | GVCFSFVFM | 8.487 ± 0.064
113 | GVGEEGARVKWIVCNKCFFP | 2.1 ± 0.12
114 | GVHMSDRVNTMSD | -0.129 ± 1.1
115 | GVLYWALLDGGVQRGQDMKL | 0.641 ± 0.62
116 | GVMIRKSARYYL | -0.275 ± 0.79
117 | GVNSLVERFNLWYVLGERTF | -0.35 ± 0.33
118 | GVRRRRIRRWLNVSGRYMCE | 2.38 ± 0.23
119 | GVSSKKV | 4.768 ± 0.047
120 | GVSVMKVLYLCTIDKALCFG | 6.06 ± 0.068
121 | GVTLNSCFFNRVYLTLFGIN | 6.946 ± 0.031
122 | GVVWKYRIFPWTFPHNFFHL | -0.665 ± 0.39
123 | GVYPICV | 0.416 ± 0.49
124 | GWAKPMGFNLILR | 0.265 ± 0.31
125 | GWCRYLKDLYI | -1.1 ± 0.36
126 | GWSMCRVSRLTMLVSVVFFC | 0.377 ± 0.26
127 | GWSSSGVVIRVPGSFRLVGR | 1.39 ± 0.45
128 | GWVLI | -0.994 ± 1.1
129 | GYAVRRYDLMNLFRSMWASC | -0.739 ± 0.79
130 | GYAYLSLHKA | 0.342 ± 0.2
